The source of these data is PMC3677924, “Biochemical and Functional Analysis of Drosophila-Sciara Chimeric Sex-Lethal Proteins”.

Holding throughout (conditions): protein: recombinant; tags: GST; label: fluorescein (RNA labelling mix)
Series [1] concerns the target T1, SX35 chimera (Drosophila melanogaster / Sciara …, UniProt P19339 1-123+=R+Q86QM9:73-287, internal_change).
T1 sequence: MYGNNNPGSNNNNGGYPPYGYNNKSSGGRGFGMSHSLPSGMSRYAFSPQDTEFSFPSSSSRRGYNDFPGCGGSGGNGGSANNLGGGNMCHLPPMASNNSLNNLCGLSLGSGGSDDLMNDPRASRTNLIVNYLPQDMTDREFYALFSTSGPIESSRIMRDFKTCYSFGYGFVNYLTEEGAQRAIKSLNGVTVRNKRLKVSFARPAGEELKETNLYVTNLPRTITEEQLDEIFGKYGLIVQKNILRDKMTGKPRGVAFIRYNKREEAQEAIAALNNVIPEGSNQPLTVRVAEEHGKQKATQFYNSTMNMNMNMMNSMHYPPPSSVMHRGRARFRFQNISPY
The series is described as follows: EMSA; Hill n=1; error 95% CI; 20 mM Hepes pH 8.0, 0.1 M KCl, 0.5 mM EDTA, 1 mM DTT, 0.05% NP40, 20% glycerol, 3 µg yeast tRNA; 5 min on ice, then 10 min at room temperature with RNA; 5% native PAGE, 0.25x TBE. (In general: A gel shift assay detects complexes by their altered migration in electrophoresis.)

The target of series [2] is T2, SX28 chimera (Drosophila melanogaster / Sciara …, UniProt Q86QM9 1-240+=LE+P19339:293-354, internal_change).
T2 sequence: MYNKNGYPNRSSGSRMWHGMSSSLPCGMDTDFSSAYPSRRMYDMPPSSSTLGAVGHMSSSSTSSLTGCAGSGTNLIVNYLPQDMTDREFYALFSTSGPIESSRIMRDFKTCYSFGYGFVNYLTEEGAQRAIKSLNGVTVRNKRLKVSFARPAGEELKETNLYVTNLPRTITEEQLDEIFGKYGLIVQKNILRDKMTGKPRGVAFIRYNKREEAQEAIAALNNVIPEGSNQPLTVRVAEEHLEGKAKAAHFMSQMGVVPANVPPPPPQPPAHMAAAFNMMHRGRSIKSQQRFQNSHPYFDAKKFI
Described as above.

The target in series [3] is T3, SX17 chimera (Drosophila melanogaster / Sciara …, UniProt Q86QM9 1-71+=R+P19339:125-354, internal_change).
T3 sequence: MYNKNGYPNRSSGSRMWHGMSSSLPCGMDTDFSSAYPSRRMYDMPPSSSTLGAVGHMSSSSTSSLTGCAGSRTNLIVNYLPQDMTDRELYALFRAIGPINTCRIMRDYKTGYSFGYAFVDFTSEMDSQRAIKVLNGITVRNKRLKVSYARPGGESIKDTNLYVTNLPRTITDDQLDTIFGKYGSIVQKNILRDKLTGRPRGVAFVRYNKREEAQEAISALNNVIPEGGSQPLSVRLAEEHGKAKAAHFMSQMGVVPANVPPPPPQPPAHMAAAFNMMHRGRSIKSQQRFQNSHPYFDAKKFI
The series is described as above.

Series [4] concerns the target T4, SX64 chimera (Drosophila melanogaster / Sciara …, UniProt P19339 1-292+=LE+Q86QM9:241-287, internal_change).
T4 sequence: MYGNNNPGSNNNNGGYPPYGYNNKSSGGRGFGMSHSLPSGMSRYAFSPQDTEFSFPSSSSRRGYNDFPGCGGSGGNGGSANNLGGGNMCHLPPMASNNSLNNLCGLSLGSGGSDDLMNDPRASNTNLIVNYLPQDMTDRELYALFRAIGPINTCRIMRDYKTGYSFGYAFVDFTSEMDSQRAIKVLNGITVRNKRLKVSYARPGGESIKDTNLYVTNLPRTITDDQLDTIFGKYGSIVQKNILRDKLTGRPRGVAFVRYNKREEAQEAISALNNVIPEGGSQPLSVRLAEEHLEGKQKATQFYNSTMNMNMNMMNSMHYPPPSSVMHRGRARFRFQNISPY
The series is described as above.

The target of series [5] is T1, SX35 chimera. The series is described as follows: EMSA; apparent Kd, Hill fit; error 95% CI; 20 mM Hepes pH 8.0, 0.1 M KCl, 0.5 mM EDTA, 1 mM DTT, 0.05% NP40, 20% glycerol, 3 µg yeast tRNA; 5 min on ice, then 10 min at room temperature with RNA; 5% native PAGE, 0.25x TBE.
The target in series [6] is T2, SX28 chimera. Described as above.
For series [7], the target named is T3, SX17 chimera. Described as above.
In series [8] the target is T4, SX64 chimera. The series is described as above.

As to CAUGAUUAUUUUUUUUUAUUUUUUUUCGGUGA (ssRNA) [double poly(U) SXL site], the Kd with SX35 chimera [1] was found to be 0.9 ± 0.4 µM; in the series with SX28 chimera [2], 3.8 ± 0.5 µM; with SX17 chimera [3], 2.4 ± 0.5 µM; with SX64 chimera [4], 2.3 ± 0.4 µM.

For the molecule ACAUAUUUUUUUUCACAGC (ssRNA) [single poly(U) SXL site], the Kd in the series with SX35 chimera [5] was 230 ± 40 µM; with SX28 chimera [6], 230 ± 50 µM; in the series with SX17 chimera [7], 350 ± 50 µM; with SX64 chimera [8], 180 ± 20 µM.
